The nanobody polyreactivity screen of Harvey et al. (2022)

Experiment: yeast display, Sf9 membrane polyspecificity reagent, FACS + sequencing; frameworks hold sequencing errors
Outline: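 A nanobody's polyreactivity label depends on the gate it was sorted from. Yeast display cells were stained with 10% biotinylated, detergent-solubilized Sf9 membrane reagent for 1 hour at 4 °C, enriched on streptavidin microbeads and sorted by FACS. The low and high (top ~1%) gates were set on anti-HA fluorescence for expression and streptavidin fluorescence for reagent binding.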

| Sequence | polyreactivity (PSR sort gate) |
| --- | --- |
| QVQLVESGGGLVQAGGSLRLSCAASGFIFWWYAMGWYRQAPGKERELVAGITGSGGTTYYADSVKGRFTISRDNAKNTVYLQMNSLKPEDTAVYYCAARSRSRPKYDYWGQGTQVTVSS | high polyreactivity |
| QVQLVESGGGLVQAGGSLRLSCAASGFIFWWYAMGWYRQAPGKERELVASISWSGGSTYYADSVKGRFTISRDNAKNTVYLQMNSLKPEDTAVYYCAASRARTIPGPHTNFNYWGQGTQVTVSS | high polyreactivity |
| QVQLVESGGGLVQAGGSLRLSCAASGFIFWWYAMGWYRQAPGKERELVATITASVGSTNYADSVKGRFTISRDTAKNTVYLQMNSLKPEDTAVYYCATDIIGAIRDWDHTRMDYWGQGTQVTVSS | low polyreactivity |
| QVQLVESGGGLVQAGGSLRLSCAASGFIFWWYGMGWYRQSPGKEREFVAAITQSGSTYYADSVKGRFTISRDNAKNTVYLQMNSLKPEDTAVYYCAAVVGRRLYPRYDYWGQGTQVTVSS | high polyreactivity |
| QVQLVESGGGLVQAGGSLRLSCAASGFIFWYYAMGWSRQAPGKERELVAAISGSGGRTYYADSVKGRFTISRDNAKNTVYLQLNSLKPEDTAVYYCNARRAAYYHRARELDYWGEGTQVTVSS | high polyreactivity |
| QVQLVESGGGLVQAGGSLRLSCAASGFIFWYYAMGWYRQAPGKERELVAAITTSDGSTYYADSVKGRFTISRDNAKNTVYLQMNSLKPEDTAGYYCAADSYYVSYGYYYCGQGTQVTVSS | low polyreactivity |
| QVQLVESGGGLVQAGGSLRLSCAASGFIFYAYAMGWDRQAPGKERELVAAISRGGGSTYYADSVKGRFTISRDNAKNTVYLQMNSLKPEDTAVYYCAADFYYDRDVDFWGQGTQVTVSS | high polyreactivity |
| QVQLVESGGGLVQAGGSLRLSCAASGFIFYDYAMGWYRQAPGKERELVAAISSGGSTNYADSVKGRFTISRDNAKNTVYLQMNSLKPEDTAVYYCNVDYGVHVPPRDYWGQGTQVTVSS | low polyreactivity |
| QVQLVESGGGLVQAGGSLRLSCAASGFIFYDYAMGWYRQAPGKERELVASISWSSGSTYYADSVKGRFTISRDNAKNTVYLQMNSLKPEDTAVYYWAADGYPLQLYNYWGLGTQVTVSS | low polyreactivity |
| QVQLVESGGGLVQAGGSLRLSCAASGFIFYDYAMGWYRQGPGKERELGAAISSTAFGTYYADSVKGRFTISRDKAKNTVYLQMNILKPEDTAVYYCAAAVSPHSEGFGEYNDWGQGTQVTVSS | low polyreactivity |
| QVQLVESGGGLVQAGGSLRLSCAASGFIFYDYDMGCYRQAPGKERELVAAITYSGGSTYYADSVKGRFTISRDNAKNTVYLQMNSLKPEDTAVYYCAAVKSRYAEAVDYYYWGQGTQVTVSS | low polyreactivity |
| QVQLVESGGGLVQAGGSLRLSCAASGFIFYDYDMGWYRQAPGKERELVAAISDGGSTNYADSVKGRFTISRDNAKNTVYLQMNSLKPEDTAVYYCAKDGFVYYDYFQYIEYDYWGQGTQVTVSS | low polyreactivity |
| QVQLVESGGGLVQAGGSLRLSCAASGFIFYFNAMGWYRQAPGKERELVAAISASGGRTYYADSVKGRFTISRDNAKNTVYLQMNSLIPEDTAVYYCAADIRGYDYWGQGTQVTVSS | high polyreactivity |
| QVQLVESGGGLVQAGGSLRLSCAASGFIFYGYTMGWYRQAPGKERELVARISRRGGSTYYADSVKGRFTISRDNAKNTVYLQMNSLKPEDTAVYYCAAELRRLFYAYGYWGQGTQVTVSS | low polyreactivity |
| QVQLVESGGGLVQAGGSLRLSCAASGFIFYKNAMGWYRQAPGKERELVAAISSRGGSTSYADSVKGLFTISRDNAKNTVYLQMNSLKQEDTAVYYCAAYPDYSYFYWGQGTQVTVSS | high polyreactivity |
| QVQLVESGGGLVQAGGSLRLSCAASGFIFYKYAMGWYRQAPGKERELVAAITSSAGSTYYADSVKGRFTISRDNAKNTVYLQMNSLKPEDTAVYYCAADFHVDYVYWGQGTQVTVSS | high polyreactivity |
| QVQLVESGGGLVQAGGSLRLSCAASGFIFYLNAMGWYRQAPGKERELVAAISGRGGRTYYADSVKGRFTISRDNAKNTVYLQMNSLKPEDTAVYYCAAQYVPSRYGYWGQGTQVTVSS | high polyreactivity |
| QVQLVESGGGLVQAGGSLRLSCAASGFIFYLYTMGWYRQAPGKERELVAAIDYSGASTNYADSVKGRFTISRDNAKNTVYVQRNSQKPEDTAVYYCAVNPEVLYHSWTLDYWGQGTQVTVSS | low polyreactivity |
| QVQLVESGGGLVQAGGSLRLSCAASGFIFYNYAMGLYRQAPGKERELVAAISASGGRTYYADSVKGRFTISRDNAKNTVYLQMNRLKPEDTAVYYCNARVNYKGYDYWGQGTQVTVSS | high polyreactivity |
| QVQLVESGGGLVQAGGSLRLSCAASGFIFYNYAMGWYRQAPGKERELVAAITSRGGSTYYADSVKGRFTISRDNAKNTVYLQMNSLKPEDTAVYYCAAVKVGDARFVRNDYWGQGTQVTVSS | high polyreactivity |
| QVQLVESGGGLVQAGGSLRLSCAASGFIFYPNAMGWYRQAPGKERELVAVITGGGSTYYADSVKGLFTISRDNAKNTVYLQMNSLKPEDPAVYYCAARTLRAGYRASGVRRDYWRQGTQVTVSS | high polyreactivity |

| Sequence | polyreactivity (PSR sort gate) |
| --- | --- |
| QVQLVESGGGLVQAGGSLRLSCAASGFIFYRNAMGWYRQAPGKERELVAAISQRGGRTYADSVKGRFTISRDNAKNTVYLQMNSLIPEDTAVYYCAADYLDSTYGYVYGWDDYWGQGTQVTVSS | low polyreactivity |
| QVQLVESGGGLVQAGGSLRLSCAASGFIFYRNTMGWSRQAPGKEREFVAAIRWRGGSTYYADSVKGRFTISRDNAKNTVYLQMNSLKPEDTAVYYCAADTRPGYSGFEYWGQGTQVTVSS | high polyreactivity |
| QVQLVESGGGLVQAGGSLRLSCAASGFIFYRNTMGWYRPAPGKEREFVAAIRWRGGSTYYADSVKGRFTISRDNAKNTVYVQMNSLKPEDTAGYYCAADTRPGYSGFEYWGQGTQVTVSS | high polyreactivity |
| QVQLVESGGGLVQAGGSLRLSCAASGFIFYRNTMGWYRQAPGKEREFVAAIRWRGGSTYYADSVKGRFTISRDNAKNTVYLQMNSLKPEDTAVYYCAADTRPGYSGFEYWGQGTQVTVSS | high polyreactivity |
| QVQLVESGGGLVQAGGSLRLSCAASGFIFYRYAMGRYRQAPGKERELVAAISWGGGSTTYYADSVKGRFTISRDNAKNTVYLQMNSLKPEDTAVYYCAAYIGKGYGSEYYYWGQGTQVTVSS | low polyreactivity |
| QVQLVESGGGLVQAGGSLRLSCAASGFIFYRYAMGWYRQAPGKEREFVAVISKSGGRTYYADSVKGRFTISRDNAKNTVYLQMNSLKPEDTAVYYCNRVYRPSRYDYWGQGTQVTVSS | high polyreactivity |
| QVQLVESGGGLVQAGGSLRLSCAASGFIFYRYAMGWYRQAPGKERELVAAISYSGGSTYYADSVKGRFTISRDNAKNTVYLQMNSLKPEDTAVYYCAAGSKYRYDYWGQGTQVTVSS | high polyreactivity |
| QVQLVESGGGLVQAGGSLRLSCAASGFIFYRYAMGWYRQAPGKERELVAAITGSGARTYYADSVKGRFTISRDNAKNTVYLQMNSLKPEDTAVYYCNARGYRGYDYWGQGTQVTVSS | high polyreactivity |
| QVQLVESGGGLVQAGGSLRLSCAASGFIFYRYAMGWYRQEPGKERELVASINYSGGRTYYADSVKGRFTISRDNAKNTVYLQMNSLKPEDTAVYYCNARYKSTYYYWGQGTQVTVSS | high polyreactivity |
| QVQLVESGGGLVQAGGSLRLSCAASGFIFYRYARGWYRQAPGKEREFVAAITRSAGGTYYADSVKGRFTISRDNAKNTVYLQMNSLKPEDTAVYYCAAVYRSGSRYYLGWYNYWGQGTQVTVSS | high polyreactivity |
| QVQLVESGGGLVQAGGSLRLSCAASGFIFYRYSMGWYRQAPGIERELVAAIRSSGGSTYYADSVKGRFSISRDNAKNTVYRHMNSLKPQDTAVYYCAKCFSSVLWNGIWPYDYWGQGTQVTVSS | low polyreactivity |
| QVQLVESGGGLVQAGGSLRLSCAASGFIFYSNAMGWYRQAPGKERELVAAISRGGGSTYYADSVKGRFTISRDNAKNTVYLQMNSLKPEDTAVYYCAKRRLSPQDDYWGQGTQVTVSS | high polyreactivity |
| QVQLVESGGGLVQAGGSLRLSCAASGFIFYSNAMGWYRQAPGKERELVAAISWDAGSTYYADSVKGRFTISRDNPKNTVYLQMNSLKPEDTAVYYCATDRIVGRYIYNYWGQGTQVTVSS | high polyreactivity |
| QVQLVESGGGLVQAGGSLRLSCAASGFIFYSYAMGWYRQAPGKERELVAAITSSGGNTYYADSVKGRFTISRDNAKNTGYLQMNSLKPEDTAVYYCNRDRKRGYPYQPYDYWGQGTQVTVSS | high polyreactivity |
| QVQLVESGGGLVQAGGSLRLSCAASGFIFYSYAMGWYRQAPGKERELVAAITYSGGSTYYADSVKGRFTISRDNAKNTVYLQMNSLKPEDTAVYYCADDYYHPGYIYEYWGQGTQVTVSS | low polyreactivity |
| QVQLVESGGGLVQAGGSLRLSCAASGFIFYSYAMRWYRQDPGQERELVAAISTSGGSSYYADSVKGRFTMSRDNAKNTVYLQMNSLKPEDTAVYYCATLSAFYPFAYDYWGQGTQVTVSS | high polyreactivity |
| QVQLVESGGGLVQAGGSLRLSCAASGFIFYSYVMGWSRQAPGKERELVAAISRSGGSTYYADSVKGRFTISRDNAKNTVYLQMNSLKPEDTAVYYCAVDGISGTSYGEGDEYWGQGTQVTVSS | high polyreactivity |
| QVQLVESGGGLVQAGGSLRLSCAASGFIFYTYAMGWYRQAPGKERELVAAISWRGGRTYYADSVKGRFTISRDNAKNTVYLQMNSLKPEDTAVYYCNAVTRSGEYDYWGQGTQVTVSS | high polyreactivity |
| QVQLVESGGGLVQAGGSLRLSCAASGFIFYTYVMGWYRQAPGKERELVAAISGTGGRTYYADSVKGRFTISRDNAKNTVYLQMNSLKPEDTAVYYCAAVSRYATGGGYWGQGTQVTVSS | high polyreactivity |
| QVQLVESGGGLVQAGGSLRLSCAASGFIFYWYVMGWYRQAPGKERELVAGISKNGTNTYYADSVKGRFTISRDNAKNTVYLQMNSLKPEDTAVYYCAARGYIRSRHYLEGYWGQGTQVTVSS | high polyreactivity |
